Experimental data reported in patent US20090325867A1, “RECEPTOR-SPECIFIC TUMOUR NECROSIS FACTOR-RELATED APOPTOSIS-INDUCING LIGAND (TRAIL) VARIANTS” (MEDICAL RESEARCH COUNCIL, priority 2005, published 2009).
“Also recorded” adds a separate entry of the source.

How the values were obtained:
[1] = tested on: Jurkat cells; experiment: Apoptosis by phosphatidylserine (PS) externalization in Jurkat cells; assay type: cell-based; conditions: for inhibition of induced apoptosis by TRAIL-R1 blocking Ab: 30 min pre-incubation with Ab (5 μg ml^−1); for ability to induce apoptosis in Jurkat cells (in words): PS externalization, compared with wt TRAIL
Method: Cells were also exposed to HGS-ETR1 or HGSETR2 (1 μg ml^−1). C: Ramos or Jurkat cells were pre-incubated for 30 min either alone or with TRAIL-R1 blocking Ab or TRAIL-R2 neutralizing Ab (5 μg ml^−1). […] D: Ramos and Jurkat cells were exposed to wt TRAIL or TRAIL mutants as described above and processing of caspase-3 and -8 determined by Western blot analysis. The asterisk indicates a non-specific band. The lower panel of the blot for detection of the caspase-8 p18 subunit was exposed for twice as long as the upper panel. Apoptosis was assessed by phosphatidylserine externalization and results expressed as the Means±SEM of at least 3 separate determinations. […]
(§1) Apoptosis was quantified by phosphatidylserine (PS) externalization in the presence of propidium iodide as described (MacFarlane et al., 2002 ibid.). Samples for Western blot analysis were prepared and caspase processing detected as described (Inoue et al., 2004 ibid.; MacFarlane et al., 2005 ibid.).
Ramos and Jurkat T cells (clone E6-1) were cultured as described (MacFarlane et al, 2005 ibid.). The breast tumour cell line, MCF-7 (clone F43) was cultured as described previously (MacFarlane et al., 2000 J. Cell Biol. 148, 1239-1254). Cells were cultured for either 4 h (Ramos and Jurkat) or 6 h (MCF-7) with His-TRAIL (MacFarlane et al, 1997 J Biol Chem 272, 25417-25420), HGS-ETR1 or HGS-ETR2 (Human Genome Sciences), or a mutant form of His-TRAIL (MacFarlane et al, 2005 ibid.). Samples were analyzed for apoptosis, Western blotting, or TRAIL DISC activation as described (MacFarlane et al, 2005 ibid.; MacFarlane et al. 2002 Oncogene 21, 6809-6818). Mutants of His-TRAIL (residues 95-281) were generated using the Quik-Change site-directed mutagenesis kit (Stratagene, Calif.), confirmed by DNA sequencing, expressed in E. coli and purified as described (MacFarlane et al, 1997 ibid.). For siRNA targeting of TRAIL-R1/-R2, MCF-7 cells were seeded into six-well plates immediately prior to effectene-mediated RNAi transfection with either a negative control siRNA (30 nM, Ambion, #4611), or preannealed siRNA oligonucleotides for TRAIL-R1 or TRAIL-R2 (30 nM, Ambion), with the sequence and validity described (Ren et al, 2004 Mol. Biol. Cell vol 15 pp 5064-5074). After 40 h of transfection the cells were collected and total TRAIL-R1 or TRAIL-R2 levels assessed. Where indicated, RNAi transfected MCF-7 cells were either left untreated or exposed to wt-TRAIL and apoptosis assessed by the extent of Bax activation, determined using the conformation specific Bax MAb, clone 3 (Dewson et al, 2003 Oncogene vol 22 pp 2643-54).

[2] = tested on: primary MCL cells; experiment: Apoptosis in freshly isolated primary MCL cells with or without depsipeptide pre-treatment; assay type: cell-based, human; conditions: pre-treatment 16 h with depsipeptide (5 nM), depsipeptide alone 35.4±5%
Method: Cell lines were also pre-incubated for 30 min with a TRAIL-R1 blocking Ab and a TRAIL-R2 neutralizing Ab from Alexis and R&D systems, respectively, prior to exposure to TRAIL. Freshly isolated cells from patients with MCL were isolated, purified and incubated with different forms of TRAIL as described above for CLL cells. Samples were either analyzed immediately for apoptosis or stored at −80° C. for subsequent Western blotting. Other methods and reagents were as described (Inoue (2004 Cell Death Differ 11 Suppl 2, S193-206); MacFarlane et al., 2005 ibid).
as §1
We also obtained three samples from patients with mantle cell lymphoma (MCL), an incurable and aggressive disease that accounts for ˜6% of all non-Hodgkin's lymphoma. There are no standard treatments for MCL and the prognosis is very poor particularly for the blastoid variant. MCL cells were isolated and exposed to the different forms of TRAIL after pre-treatment for 16 h with depsipeptide (5 nM).

[3] = tested on: Ramos cells; experiment: Caspase-8 and -3 processing by Western blot in Ramos cells; assay type: cell-based; conditions: FIG. 1D
Method: (§2) Cells were also exposed to HGS-ETR1 or HGSETR2 (1 μg ml^−1). C: Ramos or Jurkat cells were pre-incubated for 30 min either alone or with TRAIL-R1 blocking Ab or TRAIL-R2 neutralizing Ab (5 μg ml^−1). […] D: Ramos and Jurkat cells were exposed to wt TRAIL or TRAIL mutants as described above and processing of caspase-3 and -8 determined by Western blot analysis. The asterisk indicates a non-specific band. The lower panel of the blot for detection of the caspase-8 p18 subunit was exposed for twice as long as the upper panel. Apoptosis was assessed by phosphatidylserine externalization and results expressed as the Means±SEM of at least 3 separate determinations.
as §1
(§3) To confirm that the mutants were inducing apoptosis, we examined their effects on the processing of caspase-8, the apical caspase in death receptor-induced apoptosis and caspase-3, an effector caspase.

[4] = tested on: Jurkat cells; experiment: Caspase-8 and -3 processing by Western blot in Jurkat cells; assay type: cell-based; conditions: FIG. 1D
Method: as §2, §1, §3

Row | Molecule | inhibition of induced apoptosis by TRAIL-R1 blocking Ab [1] | ability to induce apoptosis in Jurkat cells (in words) [1] | apoptosis, ligand or antibody after depsipeptide pre-treatment [2] [%] | processing of caspase-8 and caspase-3 [3] | processing of caspases-8 and -3 [4] | concentration-response of apoptosis compared with wt TRAIL ([1]; 4 h, FIG. 1A) | % PS+ cells, Jurkat ([1]; 4 h exposure, 500 ng ml^−, Mean ± SEM of at least three determinations) [%]
1 | HGS-ETR2 (antibody, INN chains, looked up, V domains shown) VH: EVQLVQSGGGVERPGGSLRLSCAASGFTFDDYGMSWVRQAPGKGLEWVSGINWNGGSTGYADSVKGRVTISRDNAKNSLYLQMNSLRAEDTAVYYCAKILGAGRGWYFDLWGKGTTVTVSS VL: SSELTQDPAVSVALGQTVRITCQGDSLRSYYASWYQQKPGQAPVLVIYGKNNRPSGIPDRFSGSSSGNTASLTITGAQAEDEADYYCNSRDSSGNHVVFGGGTKLTVL | not | potently induced apoptosis | 38.3±4.3 | not | most potent | – | –
2 | TRAIL.R1-5: 6His TRAIL 95-281 with 193Ser, 199Val, 201Arg, 213Trp and 215Asp (protein, biotin (site not stated) in the DISC analysis only; not biotinylated in the apoptosis assays, 6His TRAIL 95-281 with 193Ser, 199Val, 201Arg, 213Trp and 215Asp) TSEETISTVQEKQQNISPLVRERGPQRVAAHITGTRGRSNTLSSPNSKNEKALGRKINSWESSRSGHSFLSNLHLRNGELVIHEKGFYYIYSQTYFRFSEEIKEVTRNDKQMVQYIYKWTDYPDPILLMKSARNSCWSKDAEYGLYSIYQGGIFELKENDRIFVSVTNEHLIDMDHEASFFGAFLVG | blocked | lost much of its activity; also recorded: low levels of apoptosis | 54.3±9.1 | induced the processing | small amount of caspase processing | much less active than wt TRAIL | 20.0 ± 2.3
